Results from publication PMC5462769, “A highly conserved sequence of the viral TAP inhibitor ICP47 is required for freezing of the peptide transport cycle” (Scientific Reports, 2017).
Where a chain is given by its changes, count along the chain named. Read-outs that look alike come from different tables or passages of the source.

Tests used:
[1] = target: TAP (Homo sapiens) (UniProt Q03518); conditions: cited from earlier work
[2] = target: TAP (Homo sapiens) (UniProt Q03518); conditions: cited from earlier work; remark: listed apart in the source
[3] = target: T1, hT1/hT2 (human TAP1 with human TAP2-FLAG) (human, UniProt Q03518 1-748; Q03519 1-686); test: cell-based or functional assay
T1 sequence 1: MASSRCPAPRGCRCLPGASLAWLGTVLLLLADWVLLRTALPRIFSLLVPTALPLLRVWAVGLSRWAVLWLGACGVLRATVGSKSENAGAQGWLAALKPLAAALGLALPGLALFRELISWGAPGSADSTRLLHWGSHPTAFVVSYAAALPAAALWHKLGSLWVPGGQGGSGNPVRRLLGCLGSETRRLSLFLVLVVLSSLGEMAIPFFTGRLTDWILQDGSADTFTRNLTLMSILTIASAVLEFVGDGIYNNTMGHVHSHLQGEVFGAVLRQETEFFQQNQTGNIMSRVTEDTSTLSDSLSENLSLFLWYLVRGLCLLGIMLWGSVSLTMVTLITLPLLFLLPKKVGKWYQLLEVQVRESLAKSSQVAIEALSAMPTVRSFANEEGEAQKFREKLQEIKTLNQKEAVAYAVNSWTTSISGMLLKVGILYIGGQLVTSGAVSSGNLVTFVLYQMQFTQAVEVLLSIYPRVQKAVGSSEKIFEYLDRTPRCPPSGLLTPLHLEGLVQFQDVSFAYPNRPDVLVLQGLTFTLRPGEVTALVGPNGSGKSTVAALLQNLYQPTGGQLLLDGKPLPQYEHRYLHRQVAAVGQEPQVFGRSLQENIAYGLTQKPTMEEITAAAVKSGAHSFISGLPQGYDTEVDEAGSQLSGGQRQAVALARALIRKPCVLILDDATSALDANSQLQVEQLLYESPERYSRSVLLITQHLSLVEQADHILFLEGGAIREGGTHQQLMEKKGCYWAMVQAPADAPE
T1 sequence 2: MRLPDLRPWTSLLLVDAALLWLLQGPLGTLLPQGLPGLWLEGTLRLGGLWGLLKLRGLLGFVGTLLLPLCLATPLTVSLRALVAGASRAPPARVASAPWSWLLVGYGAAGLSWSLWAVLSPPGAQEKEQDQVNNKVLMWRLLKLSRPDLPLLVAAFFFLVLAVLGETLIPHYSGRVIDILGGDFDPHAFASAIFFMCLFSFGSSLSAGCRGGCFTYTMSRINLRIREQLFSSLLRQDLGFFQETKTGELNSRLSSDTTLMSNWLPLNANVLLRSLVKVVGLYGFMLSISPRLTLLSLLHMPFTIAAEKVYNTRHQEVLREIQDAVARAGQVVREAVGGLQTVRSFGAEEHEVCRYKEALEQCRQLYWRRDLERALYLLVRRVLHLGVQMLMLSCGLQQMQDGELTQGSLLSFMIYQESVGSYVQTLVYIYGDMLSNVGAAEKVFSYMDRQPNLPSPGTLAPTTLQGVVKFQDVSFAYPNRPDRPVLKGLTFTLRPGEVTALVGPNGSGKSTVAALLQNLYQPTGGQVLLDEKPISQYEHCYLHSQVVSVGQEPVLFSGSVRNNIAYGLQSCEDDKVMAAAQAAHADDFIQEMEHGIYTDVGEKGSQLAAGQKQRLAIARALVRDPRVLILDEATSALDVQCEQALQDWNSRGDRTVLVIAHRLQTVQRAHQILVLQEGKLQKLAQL

[4] = target: T2, hT1/rT2 (human TAP1 with rat TAP2-FLAG) (human | rat, UniProt Q03518 1-748; P36372 1-703); test: cell-based or functional assay
T2 sequence 1: T1 sequence 1
T2 sequence 2: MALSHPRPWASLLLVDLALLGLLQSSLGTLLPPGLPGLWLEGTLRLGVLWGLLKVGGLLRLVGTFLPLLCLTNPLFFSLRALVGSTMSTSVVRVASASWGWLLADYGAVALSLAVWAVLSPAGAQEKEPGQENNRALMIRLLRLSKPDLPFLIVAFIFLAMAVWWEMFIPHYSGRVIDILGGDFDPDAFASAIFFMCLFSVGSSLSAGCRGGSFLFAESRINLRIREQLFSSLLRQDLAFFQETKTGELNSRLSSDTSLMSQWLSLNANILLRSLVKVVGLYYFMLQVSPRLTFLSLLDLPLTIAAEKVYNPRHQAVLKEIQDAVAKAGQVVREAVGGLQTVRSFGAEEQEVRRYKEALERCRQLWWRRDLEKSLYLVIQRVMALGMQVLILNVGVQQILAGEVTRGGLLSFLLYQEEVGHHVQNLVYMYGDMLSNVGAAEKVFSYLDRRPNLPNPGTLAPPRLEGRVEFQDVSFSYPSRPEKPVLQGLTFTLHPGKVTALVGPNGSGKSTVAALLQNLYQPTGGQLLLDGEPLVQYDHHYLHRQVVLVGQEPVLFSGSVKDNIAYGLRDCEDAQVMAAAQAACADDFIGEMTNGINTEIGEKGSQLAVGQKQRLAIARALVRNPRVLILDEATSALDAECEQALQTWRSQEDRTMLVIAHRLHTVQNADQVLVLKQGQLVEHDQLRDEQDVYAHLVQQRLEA

[5] = target: rT1/rT2 (rat TAP1 with a human C-terminus, with rat TAP2-FLAG) (rat | human) (UniProt P36370)
[6] = target: rT1/hT2 (rat TAP1 with a human C-terminus, with human TAP2-FLAG) (rat | human) (UniProt P36370)

ICP47 1-53 (from UniProt P03170)
Kd [1]: 50 nM

ICP47 1-48 (from UniProt P03170)
Kd [2]: 126 nM

B1: ICP47-HA (wild-type ICP47 with a C-terminal HA-tag), in CMT64.5 cells (natural protein)
chain: MSWALEMADTFLDTMRVGPRTYADVRDEINKRGREDREAARTAVHDPERPLLRSPGLLPEIAPNASLGVAHRRTGGTVTDSPRNPVTR
MHC class I surface expression (mAb 20-8-4) on CMT64.5 cells, ICP47-positive relative to ICP47-negative cells [3]: 17 % expression
MHC class I surface expression (mAb 20-8-4) on CMT64.5 cells, ICP47-positive relative to ICP47-negative cells [4]: 88 % expression
MHC class I surface expression (mAb 20-8-4) on CMT64.5 cells, ICP47-positive relative to ICP47-negative cells [5]: 101 % expression
MHC class I surface expression (mAb 20-8-4) on CMT64.5 cells, ICP47-positive relative to ICP47-negative cells [6]: 47 % expression

B2: ICP47m-HA (ICP47 with Pro50Leu51Leu52 mutated to AlaAlaAla, C-terminal HA-tag), in CMT64.5 cells (natural protein, herpes simplex virus type-1 (HSV-1), UniProt P03170 1-88, looked up)
chain: B1 chain with P50A, L51A, L52A
MHC class I surface expression (mAb 20-8-4) on CMT64.5 cells, ICP47-positive relative to ICP47-negative cells [3]: 26 % expression
